Measured values taken from patent publication US20210087281A1 (AGOMAB THERAPEUTICS, published 2021).

B1: 76H10 Fab (Fab, V domains shown)
VH: QLQLVESGGGLVQPGGSLRVSCTASGFTFNTYYMTWVRQAPGKGLEWVSDINSGGGTYYADSVKGRFTISRDNAKNTLYLQMNSLKPEDTALYYCVRVRIWPVGYDYWGQGTQVTVSS
VL: QAVVTQEPSLSVSPGGTVTLTCGLSSGSVTTSNYPGWFQQTPGQAPRTLIYNTNNRHSGVPSRFSGSISGNKAALTITGAQPEDEADYYCSLYTGSYTTVFGGGTHLTVL
notes: llama Fab (VH-CH1 and lambda VL-CL) with MYC flag, crude periplasmic extract
B2: 71D6 Fab (Fab, V domains shown)
VH: ELQLVESGGGLVQPGGSLRLSCAASGFTFSSYGMSWVRQAPGKGLEWVSAINSYGGSTSYADSVKGRFTISRDNAKNTLYLQMNSLKPEDTAVYYCAKEVRADLSRYNDYESYDYWGQGTQVTVSS
VL: QPVLNQPSALSVTLGQTAKITCQGGSLGARYAHWYQQKPGQAPVLVIYDDDSRPSGIPERFSGSSSGGTATLTISGAQAEDEGDYYCQSADSSGSVFGGGTHLTVL
notes: as for B1

Columns and labels:
human MET ECD [1] = biological target: T1, human MET ECD (human, UniProt P08581 25-932); test: ELISA, MET ECD in solid phase, crude periplasmic Fab
T1 construct: range 1-932; recombinant ECD made by the applicants; the stated range begins at residue 1, so it includes the signal peptide of the entry; also called hMET; hMET ECD
T1 sequence (P08581 25-932 limits assumed, form in doubt): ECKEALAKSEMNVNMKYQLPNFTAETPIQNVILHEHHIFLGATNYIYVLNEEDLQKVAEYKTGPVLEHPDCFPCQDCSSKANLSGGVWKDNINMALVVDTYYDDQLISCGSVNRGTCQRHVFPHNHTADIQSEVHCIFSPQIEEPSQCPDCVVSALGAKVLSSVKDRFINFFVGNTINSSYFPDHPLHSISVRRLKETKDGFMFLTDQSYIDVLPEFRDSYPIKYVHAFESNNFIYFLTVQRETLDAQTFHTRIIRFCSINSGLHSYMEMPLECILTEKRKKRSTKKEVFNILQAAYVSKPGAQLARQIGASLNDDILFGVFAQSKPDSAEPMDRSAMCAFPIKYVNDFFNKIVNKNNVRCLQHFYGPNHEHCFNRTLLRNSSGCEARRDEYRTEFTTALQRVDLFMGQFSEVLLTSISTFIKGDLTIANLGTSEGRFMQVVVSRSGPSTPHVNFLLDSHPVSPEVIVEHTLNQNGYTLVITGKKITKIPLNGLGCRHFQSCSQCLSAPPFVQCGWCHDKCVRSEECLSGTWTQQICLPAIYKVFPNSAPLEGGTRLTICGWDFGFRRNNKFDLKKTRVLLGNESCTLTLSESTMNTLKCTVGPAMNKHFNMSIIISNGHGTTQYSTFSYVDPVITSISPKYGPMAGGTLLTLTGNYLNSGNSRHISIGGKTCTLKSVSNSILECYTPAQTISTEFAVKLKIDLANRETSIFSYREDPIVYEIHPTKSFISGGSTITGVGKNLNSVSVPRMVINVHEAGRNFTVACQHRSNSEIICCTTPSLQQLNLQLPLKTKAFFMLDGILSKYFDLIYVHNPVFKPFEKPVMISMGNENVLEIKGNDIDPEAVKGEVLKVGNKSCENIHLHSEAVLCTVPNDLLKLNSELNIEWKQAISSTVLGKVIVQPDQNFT
Method: (§1) Fab-expressing phages from the libraries described above were produced according to standard phage display protocols. For selection, phages were first adsorbed to immobilized recombinant human MET ECD, washed, and then eluted using trypsin. After two cycles of selection with human MET ECD, two other cycles were performed in the same fashion using mouse MET ECD. In parallel, we also selected phages alternating a human MET ECD cycle with a mouse MET ECD cycle, for a total of four cycles. Phages selected by the two approaches were pooled together and then used to infect TG1 E. coli. Individual colonies were isolated and secretion of Fabs was induced using IPTG (Fermentas). The Fab-containing periplasmic fraction of bacteria was collected and tested for its ability to bind human and mouse MET ECD by Surface Plasmon Resonance (SPR). Human or mouse MET ECD was immobilized on a CM-5 chip using amine coupling in sodium acetate buffer (GE Healthcare). The Fab-containing periplasmic extracts were loaded into a BIACORE 3000 apparatus (GE Healthcare) with a flow rate of 30 μl/min. The Fab off-rates (koff) were measured over a two minute period. Binding of Fabs to human and mouse MET was further characterized by ELISA using MET ECD in solid phase and periplasmic crude extract in solution.
(§2) TABLE 7 Fabs binding to both human MET (hMET) and mouse MET (mMET). Fabs are grouped in families based on their VH CDR3 sequence. Binding of Fabs to human and mouse MET ECD was determined by Surface Plasmon Resonance (SPR) and by ELISA. SPR values represent the koff (s⁻¹). ELISA values represent the Optical Density (OD) at 450 nm (AU, arbitrary units). Both SPR and ELISA were performed using crude periplasmic extracts. Fab concentration in the extract was not determined. Values are the mean of three independent measurements.

mouse MET ECD [2] = biological target: T2, mouse MET ECD (mouse, UniProt P16056 25-931); test: as above
T2 construct: range 1-931; recombinant ECD made by the applicants; the stated range begins at residue 1; also called mMET; mMET ECD
T2 sequence (P16056 25-931 limits assumed, form in doubt): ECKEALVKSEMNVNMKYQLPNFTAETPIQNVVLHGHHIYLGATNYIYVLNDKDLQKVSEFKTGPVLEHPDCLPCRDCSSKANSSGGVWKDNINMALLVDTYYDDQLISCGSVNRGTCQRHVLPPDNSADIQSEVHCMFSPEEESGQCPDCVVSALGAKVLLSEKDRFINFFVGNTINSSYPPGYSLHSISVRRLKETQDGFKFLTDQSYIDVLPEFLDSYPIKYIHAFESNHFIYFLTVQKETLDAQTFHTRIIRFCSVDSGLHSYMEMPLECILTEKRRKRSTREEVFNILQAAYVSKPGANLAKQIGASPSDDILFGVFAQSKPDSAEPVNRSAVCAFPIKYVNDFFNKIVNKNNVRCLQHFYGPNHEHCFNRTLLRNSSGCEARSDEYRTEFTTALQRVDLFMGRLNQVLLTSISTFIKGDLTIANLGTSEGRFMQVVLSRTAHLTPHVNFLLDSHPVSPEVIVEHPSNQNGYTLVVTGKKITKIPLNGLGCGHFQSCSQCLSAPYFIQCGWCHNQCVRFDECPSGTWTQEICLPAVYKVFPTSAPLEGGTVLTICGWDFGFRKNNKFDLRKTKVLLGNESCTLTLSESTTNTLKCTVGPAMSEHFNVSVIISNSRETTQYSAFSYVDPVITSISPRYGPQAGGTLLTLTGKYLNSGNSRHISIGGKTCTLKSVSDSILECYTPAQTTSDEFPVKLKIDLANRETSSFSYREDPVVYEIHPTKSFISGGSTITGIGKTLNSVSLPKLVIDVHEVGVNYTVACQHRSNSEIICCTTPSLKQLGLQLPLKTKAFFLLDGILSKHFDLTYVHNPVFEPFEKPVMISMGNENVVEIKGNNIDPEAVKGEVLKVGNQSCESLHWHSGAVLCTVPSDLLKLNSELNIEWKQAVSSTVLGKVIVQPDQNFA
Method: as §1, §2

human MET ECD [3] = biological target: T1, human MET ECD; test: SPR, MET ECD on chip, crude periplasmic Fab
Method: as §1, §2

mouse MET ECD [4] = biological target: T2, mouse MET ECD; test: SPR, MET ECD on chip, crude periplasmic Fab
Method: as §1, §2

Binder | OD450 (human MET ECD [1]) [AU] | OD450 (mouse MET ECD [2]) [AU] | koff (human MET ECD [3]) [s⁻¹] | koff (mouse MET ECD [4]) [s⁻¹]
B1 | 3.7 | 3.7 | 0.00568 | 0.00544
B2 | 3.26 | 3.07 | 0.00294 | 0.00267
